Data taken from patent publication US10925867B2, “Immunotherapeutic dosing regimens comprising pomalidomide and an anti-CS1 antibody for treating cancer” (Bristol-Myers Squibb Company, priority 2015, dated 2021).

How the values were obtained:
[1] = system: multiple myeloma; conditions: Ph II, patients administered pomalidomide; cited from earlier work
[2] = Infusion reactions in Study CA204004; type: in vivo, human
Description: Elotuzumab can cause infusion reactions. Infusion reactions were reported in approximately 10% of patients treated with elotuzumab, lenalidomide and dexamethasone in Study CA204004 and in 7% of patients treated with elotuzumab, bortezomib and dexamethasone in Study CA204009. All reports of infusion reaction were ≤Grade 3. Grade 3 infusion reactions occurred in 1% of patients in Study CA204004 and in no patients in Study CA204009. The most common symptoms of an infusion reaction included fever, chills and hypertension. In Study CA204004, 5% of patients required interruption of the administration of elotuzumab due to infusion reaction for a median of 25 minutes and 1% of patients discontinued due to infusion reactions. In Study CA204009, 20% of patients required interruption of the administration of elotuzumab for a median of 40 minutes and none discontinued due to infusion reactions. Of the patients who experienced an infusion reaction, 70% (23/33) in Study CA204004 and 80% (4/5) in Study CA204009 had them during the first dose.

[3] = system: relapsed or refractory multiple myeloma; conditions: with lenalidomide and low-dose dexamethasone; 10 mg/kg dose; cited from earlier work

| Compound | median progression free survival [1] | overall response rate [1] | patients achieving VGPR or CR [1] | median duration of interruption [2] | patients discontinued due to infusion reactions [2] | patients requiring interruption of administration due to infusion reaction [2] | patients with Grade 3 infusion reactions [2] | patients with infusion reaction who had it during the first dose [2] | patients with infusion reactions ([2]; with lenalidomide and dexamethasone) | PFS [3] | response rate [3] |
| --- | --- | --- | --- | --- | --- | --- | --- | --- | --- | --- | --- |
| Nc1cccc2c1C(=O)N(C1CCC(=O)NC1=O)C2=O (racemic) [Pomalidomide, (RS)-4-amino-2-(2,6-dioxo-piperidin-3-yl)-isoindole-1,3-dione] | 11.6 months | 63% | 33% | – | – | – | – | – | – | – | – |
| Elotuzumab: humanized monoclonal IgG1 antibody directed against CS-1; VL SEQ ID NO:1, VH SEQ ID NO:2 | – | – | – | 25 min | 1% | 5% | 1% | 70% | approximately 10% | 33 month | 92% |
